# According to patent publication US9707290:
# Numbering of substitutions follows the chain as printed. Like-named read-outs stand apart in the source and are kept apart here.
# B1: 10E8_T117v2-1 (designed binder)
# chain: NAMQGIHFRRHYVRHLPKEVSQNDIIKALASPLINDGMVVSDFADHVITREQNFPTGLPVEPVGVAIPHTDSKYVRQNAISVGILAEPVNFEDAGGEPDPVPVRVVFMLALGNWFDITNVLWWIKAVIQDEDFMQQLLVMNDDEIYQSIYTRISELEHHHHHH
# B2: 10E8_T298v2 (designed binder)
# chain: GSEVSQNDIIKALASPLINDGMVVSDFADHVITREQNAPTGLPVEPVGVAIPHTDSKYVRQNAISVGILAEPVNFEDAGGEPDPVPVRVVFMLALGNWFDITNVLWWIKAVIQDADFMQQLLRMNDDEIYQSIYTRISEAAGMAGIHFRRHYVRHLGLEHHHHHH
# B3: 4E10_T117 (designed binder)
# chain: HHHHHHNAMQGIHFRRHYVRHLPKEVSQNDIIKALASPLINDGMVVSDFADHVITREQNFPTGLPVEPVGVAIPHTDSKYVRQNAISVGILAEPVNFEDAGGEPDPVPVRVVFMLALGNWFDITNVLWWIMDVIQDEDFMQQLLVMNDDEIYQSIYTRISE
# B4: 4E10_T298 (designed binder)
# chain: GHHHHHHGSEVSQNDIIKALASPLINDGMVVSDFADHVITREQNAPTGLPVEPVGVAIPHTDSKYVRQNAISVGILAEPVNFEDAGGEPDPVPVRVVFMLALGNWFDITNVLWWIMDVIQDADFMQQLLVMNDDEIYQSIYTRISEAAGMAGIHFRRHYVRHLPLEHHHHHH
# B5: 10E8_T117v2-2 (designed binder)
# chain: B1 chain with D116S, N119K
# B6: 10E8_T117v2-3 (designed binder)
# chain: B1 chain with N113S, D116N, T118S, K125R
# B7: 10E8_T117v2-4 (designed binder)
# chain: B1 chain with T118S, N119R
# B8: 10E8_T117v2-5 (designed binder)
# chain: B1 chain with N119Q
# B9: 10E8_T117v2-1_RSF1 (designed binder)
# chain: NAMAGIVFRKHYVRHLGKTVTQNEIIRALAAPLISDGMVVKDFADHVIKREEQNPTGLPVQPVGVAIPHTDSKYVYYNAISVGILQEPVAFEDAGGDGRPVPVRVVFMLALGNWFDITNVLWWIKAVIQDDEFMKRLLYMTDDKIYESIRKRIYDLE
# B10: 10E8_T117v2-1_g28_g91012 (designed binder)
# chain: NAMQGIHFRRHYVRHLPKNVSQNDIIKALASPLINDGMVVSDFADHVITRENNSPTGLPVEPVGVAIPHTDSKYVNQSAISVGILAEPVNFEDANGTPDPVPVRVVFMLALGNWFDITNVLWWIKAVIQDEDFMQQLLNMSDDEIYQSIYTRISE
# modifications: added N-linked glycosylation sites (glycan-masked)
# B11: 10E8_T93v2RT12-1 (designed binder)
# chain: GKADEVREKARRRMEQAVEEFKRRLRQFEEKVKQKEPRDDEINRWIDIVKKKADEAKKRVEEVGDQAADEAAQLGNDPNVNWFDITNVLWDVKKLTEKAINDIDDALKKMKDWLESGLEHHHHHH
# B12: 10E8_T93v2RT12-3 (designed binder)
# chain: B11 chain with N81S, D84N, T86S, K93R
# B13: 10E8_T93v2RT12-4 (designed binder)
# chain: B11 chain with T86S, N87R
# B14: 10E8_T93v2RT12-5 (designed binder)
# chain: B11 chain with N87Q
# Legend:
# germline 4E10 = test: SPR
# 10E8 antibody [1] = test: SPR
# 4E10 antibody = test: SPR
# [2] = target: germline 10E8 (predicted germline precursor to 10E8); test: SPR
# [3] = target: germline 10E8 (predicted germline precursor to 10E8); test: SPR; remark: listed apart in the source
# 10E8 antibody [4] = test: SPR, antibody on the sensor
# 10E8 antibody [5] = test: SPR; remark: listed apart in the source
# 10E8 antibody [6] = test: SPR; reference 10E8_T117v2
# 10E8 antibody [7] = test: SPR; reference 10E8_T298v2
Binder,Kd (10E8 antibody [1]) [nM],Kd (4E10 antibody) [nM],also measured
B1,0.082,0.168,Kd (germline 4E10): 0.187 nM; Kd [2]: 6000 nM; Kd [3]: 30000 nM; Kd (10E8 antibody [4]): 0.091 nM
B2,,,Kd [3]: 105000 nM; Kd (10E8 antibody [4]): 0.172 nM
B3,,,Kd (10E8 antibody [5]): 3 nM; factor weaker than the corresponding 10E8 scaffold (10E8 antibody [6]): 30 fold
B4,,,Kd (10E8 antibody [5]): 3 nM; factor weaker than the corresponding 10E8 scaffold (10E8 antibody [7]): 30 fold
B5,1.3,0.0538,
B6,0.925,0.526,Kd [2]: 8000 nM
B7,0.59,3.9,Kd (germline 4E10): 3.2 nM; Kd [2]: 8000 nM
B8,0.155,,
B9,0.05,0.1,Kd (germline 4E10): 0.1 nM
B10,0.18,0.49,Kd (germline 4E10): 0.5 nM
B11,0.04,0.018,Kd [2]: 290000 to 720000 nM
B12,0.11,0.58,
B13,2.7,,
B14,0.022,,
